From publication PMC8184657

Target: insulin (bovine insulin) (bovine)
Assay: ITC

## IS1 (tetrapeptide VYYR)
  Ka: 0.00346 M⁻¹
  dH: -18.7 kcal/mol
